{
  "source": "paper PMC1074310",
  "binders": {"B1": {"name": "tumor necrosis factor receptor-associated factor 2 (TRAF2) fused to CFP, YFP or mRFP, Q12933 1-501 (natural protein)", "chain": "MAAASVTPPGSLELLQPGFSKTLLGTKLEAKYLCSACRNVLRRPFQAQCGHRYCSFCLASILSSGPQNCAACVHEGIYEEGISILESSSAFPDNAARREVESLPAVCPSDGCTWKGTLKEYESCHEGRCPLMLTECPACKGLVRLGEKERHLEHECPERSLSCRHCRAPCCGADVKAHHEVCPKFPLTCDGCGKKKIPREKFQDHVKTCGKCRVPCRFHAIGCLETVEGEKQQEHEVQWLREHLAMLLSSVLEAKPLLGDQSHAGSELLQRCESLEKKTATFENIVCVLNREVERVAMTAEACSRQHRLDQDKIEALSSKVQQLERSIGLKDLAMADLEQKVLEMEASTYDGVFIWKISDFARKRQEAVAGRIPAIFSPAFYTSRYGYKMCLRIYLNGDGTGRGTHLSLFFVVMKGPNDALLRWPFNQKVTLMLLDQNNREHVIDAFRPDVTSSSFQRPVNDMNIASGCPLFCPVSKMEAKNSYVRDDAIFIKAIVDLTGL"}},
  "biological_target": "T1, tumor necrosis factor receptor-associated factor 2 (TRAF2) fused to CFP, YFP or mRFP, Q12933",
  "T1 chain": "B1 chain",
  "test": "FRET or BRET",
  "conditions": "remark: other sources report otherwise",
  "data": [
    {"binder": "B1", "values": [
      {"measurement": "FRET1 (CFP→YFP) MFI, cells with CFP-TRAF2, YFP-TRAF2 and mRFP", "result": 10.9, "unit": "MFI"},
      {"measurement": "FRET3 (CFP→mRFP) MFI, cells with CFP-TRAF2, YFP and mRFP-TRAF2", "result": 32.7, "unit": "MFI"},
      {"measurement": "stoichiometry N", "result": 3},
      {"measurement": "two-step FRET (CFP→YFP→mRFP) MFI, cells with CFP-TRAF2, YFP-TRAF2 and mRFP-TRAF2", "result": 58.6, "unit": "MFI"}
    ]}
  ]
}
